According to US20240116985A1 (published 2024):
Starred links: 1 amine or outer side, 2 acyl side, 3 side chain; linkers in the order of their positions; H or OH if unused. Positions of bridges follow the written chain, without caps; N, C: chain ends. Non-standard residues stand in square brackets, D forms with d. Primed or numbered codes have the meaning given here. B5(15) = 2-amino-2-(pent-4-en-1-yl)hept-6-enoic acid (2,2-bis(4-pentenyl)glycine), stitching residue bearing two staples, C=CCCCC(CCCC=C)(N[*:1])C(=O)[*:2]; PyrS2″ = (S)-3-amino-1-((pent-4-en-1-yloxy)carbonyl)pyrrolidine-3-carboxylic acid (stapling residue), C=CCCCOC(=O)N1CC[C@@](N[*:1])(C(=O)[*:2])C1; B5(23) = 2-amino-2-(pent-4-en-1-yl)hept-6-enoic acid (2,2-bis(4-pentenyl)glycine), stitching residue, C=CCCCC(CCCC=C)(N[*:1])C(=O)[*:2]; B5(5) = 2,2-bis(4-pentenyl)glycine, 2-amino-2-(pent-4-en-1-yl)hept-6-enoic acid (stitching residue), C=CCCCC(CCCC=C)(N[*:1])C(=O)[*:2]; PyrS2 = (S)-3-amino-1-((pent-4-en-1-yloxy)carbonyl)pyrrolidine-3-carboxylic acid, C=CCCCOC(=O)N1CC[C@@](N[*:1])(C(=O)[*:2])C1; Bta = N[C@@H](Cc1csc2ccccc12)C(=O)O; αAllylPro = C=CC[C@@]1(C(=O)O)CCCN1; tBuAla = CC(C)(C)C[C@H](N)C(=O)O; 3Thi = N[C@@H](Cc1ccsc1)C(=O)O; Cha = N[C@@H](CC1CCCCC1)C(=O)O; S8 = C=CCCCCCC[C@](C)(N)C(=O)O; hLeu = CC(C)CC[C@H](N)C(=O)O; PyrS2(4) = not defined here; hSer = N[C@@H](CCO)C(=O)O

T1: B-cat-Halo (beta-catenin HaloTag NanoBRET construct expressed in HEK293 cells) (UniProt P35222 1-781, HaloTag NanoBRET 618 Ligand bound to the HaloTag)
T1 sequence (looked up): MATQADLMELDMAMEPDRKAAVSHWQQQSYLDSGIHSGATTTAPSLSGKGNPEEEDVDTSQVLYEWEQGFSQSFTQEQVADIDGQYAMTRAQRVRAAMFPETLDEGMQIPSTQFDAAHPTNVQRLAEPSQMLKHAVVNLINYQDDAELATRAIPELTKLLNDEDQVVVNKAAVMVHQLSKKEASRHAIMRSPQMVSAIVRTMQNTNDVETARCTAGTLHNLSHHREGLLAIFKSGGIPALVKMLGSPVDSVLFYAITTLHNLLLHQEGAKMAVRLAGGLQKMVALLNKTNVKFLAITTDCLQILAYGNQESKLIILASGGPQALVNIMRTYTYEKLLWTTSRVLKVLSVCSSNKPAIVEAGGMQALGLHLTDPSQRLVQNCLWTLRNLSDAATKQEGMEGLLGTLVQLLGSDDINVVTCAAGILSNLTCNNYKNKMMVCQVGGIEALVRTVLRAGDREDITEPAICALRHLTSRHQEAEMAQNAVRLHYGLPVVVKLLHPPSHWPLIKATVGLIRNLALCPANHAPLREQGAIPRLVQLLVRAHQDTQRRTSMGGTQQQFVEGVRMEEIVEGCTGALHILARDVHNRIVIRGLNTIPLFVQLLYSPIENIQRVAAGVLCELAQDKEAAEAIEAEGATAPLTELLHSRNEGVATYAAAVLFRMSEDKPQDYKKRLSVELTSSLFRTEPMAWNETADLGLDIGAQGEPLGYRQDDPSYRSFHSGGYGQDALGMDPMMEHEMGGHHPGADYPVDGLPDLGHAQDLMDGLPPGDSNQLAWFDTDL

T2: B-cat-Halo (beta-catenin HaloTag NanoBRET construct expressed in HEK293 cells) (UniProt P35222 1-781)
T2 sequence (looked up): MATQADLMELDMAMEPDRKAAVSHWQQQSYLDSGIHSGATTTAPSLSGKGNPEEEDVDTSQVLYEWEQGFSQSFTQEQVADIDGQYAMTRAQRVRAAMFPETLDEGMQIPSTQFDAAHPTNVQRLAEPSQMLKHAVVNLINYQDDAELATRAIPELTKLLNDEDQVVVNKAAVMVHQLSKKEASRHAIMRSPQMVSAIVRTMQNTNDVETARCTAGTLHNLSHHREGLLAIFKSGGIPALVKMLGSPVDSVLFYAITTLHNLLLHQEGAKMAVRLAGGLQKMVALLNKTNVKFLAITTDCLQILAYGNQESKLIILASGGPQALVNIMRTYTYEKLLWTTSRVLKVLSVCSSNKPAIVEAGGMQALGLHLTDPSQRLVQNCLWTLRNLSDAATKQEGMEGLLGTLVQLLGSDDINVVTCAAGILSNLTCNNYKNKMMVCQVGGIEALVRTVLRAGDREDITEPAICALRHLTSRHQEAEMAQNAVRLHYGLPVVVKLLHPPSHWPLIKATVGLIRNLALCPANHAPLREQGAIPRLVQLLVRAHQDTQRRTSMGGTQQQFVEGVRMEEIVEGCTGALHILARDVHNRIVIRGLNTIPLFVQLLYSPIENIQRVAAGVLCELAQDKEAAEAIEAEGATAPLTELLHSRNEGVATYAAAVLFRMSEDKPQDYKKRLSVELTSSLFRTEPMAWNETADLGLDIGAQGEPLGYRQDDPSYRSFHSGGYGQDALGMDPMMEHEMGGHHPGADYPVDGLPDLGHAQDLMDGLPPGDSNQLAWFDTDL

B1: I-1520: Ac-PL3-Asp-Cha-B5-Asp-Asp-Ala-Ala-Phe-Leu-PyrS2-3Thi-BztA-Hse-NH2 (peptide)
peptide: Ac-[αAllylPro]D[Cha][B5(5)]DDAAFL[PyrS2(4)][3Thi][Bta][hSer]-NH2
modifications: staple 1-4, 4-11; not fully specified; printed as I-1520: Ac-PL3-Asp-Cha-B5-Asp-Asp-Ala-Ala-Phe-Leu-PyrS2-3Thi-BztA-Hse-NH2; reading uncertain
B2: I-1543 (peptide)
peptide: Ac-[αAllylPro]DQ[B5(15)]DEAAF[hSer][S8]F[Bta]Q-NH2
modifications: staple 1-4, 4-11; not fully specified; printed as Ac-PL3-Asp-Gln-B5-Asp-Glu-Ala-Ala-Phe-Hse-S8-Phe-BztA-Gln-NH2
B3: I-1537 (peptide)
peptide: Ac-[αAllylPro]D[hLeu][B5(15)]DEAAF[hSer][S8]F[Bta]Q-NH2
modifications: staple 1-4, 4-11; not fully specified; printed as Ac-PL3-Asp-Hleu-B5-Asp-Glu-Ala-Ala-Phe-Hse-S8-Phe-BztA-Gln-NH2
B4: I-1542 (peptide)
peptide: Ac-[αAllylPro]DQ[B5(15)]DEAAF[hSer][S8]F[Bta]Q-NH2
modifications: staple 1-4, 4-11; not fully specified; printed as Ac-PL3-Asp-Gln-B5-Asp-Glu-Ala-Ala-Phe-Hse-S8-Phe-BztA-Gln-NH2
B5: I-1538 (peptide)
peptide: Ac-[αAllylPro]D[hLeu][B5(15)]DEAAF[hSer][S8]F[Bta]Q-NH2
modifications: staple 1-4, 4-11; not fully specified; printed as Ac-PL3-Asp-Hleu-B5-Asp-Glu-Ala-Ala-Phe-Hse-S8-Phe-BztA-Gln-NH2

Each binder was assayed against T1, B-cat-Halo (beta-catenin HaloTag …) (assay: cell-based or functional assay).
For Ac-[αAllylPro]DT[B5(5)]DDAAFL[PyrS2″][3Thi][Bta][hSer]-NH2 (staple 1-4, 4-11) [I-1516: Ac-PL3-Asp-Thr-B5-Asp-Asp-Ala-Ala-Phe-Leu-PyrS2-3Thi-BztA-Hse-NH2], the “NanoBRET Abs IC50” value was > 20 µM.
In the case of Ac-[αAllylPro]DT[B5(5)]DDAAFL[PyrS2″][3Thi][Bta]Q-NH2 (staple 1-4, 4-11) [I-1515: Ac-PL3-Asp-Thr-B5-Asp-Asp-Ala-Ala-Phe-Leu-PyrS2-3Thi-BztA-Gln-NH2], the “NanoBRET Abs IC50” value is reported as > 20 µM.
For Ac-[αAllylPro]D[Cha][B5(5)]DDAAFL[PyrS2″][3Thi][Bta]Q-NH2 (staple 1-4, 4-11) [I-1519: Ac-PL3-Asp-Cha-B5-Asp-Asp-Ala-Ala-Phe-Leu-PyrS2-3Thi-BztA-Gln-NH2], the “NanoBRET Abs IC50” value was 12.8 µM.
For Ac-[αAllylPro]DY[B5(5)]DDAAFL[PyrS2″][3Thi][Bta][hSer]-NH2 (staple 1-4, 4-11) [I-1512: Ac-PL3-Asp-Tyr-B5-Asp-Asp-Ala-Ala-Phe-Leu-PyrS2-3Thi-BztA-Hse-NH2], the “NanoBRET Abs IC50” value was > 20 µM.
For B1, the “NanoBRET Abs IC50” value was 17.4 µM.
For Ac-[αAllylPro]DN[B5(5)]DDAAFL[PyrS2″][3Thi][Bta][hSer]-NH2 (staple 1-4, 4-11) [I-1518: Ac-PL3-Asp-Asn-B5-Asp-Asp-Ala-Ala-Phe-Leu-PyrS2-3Thi-BztA-Hse-NH2], the “NanoBRET Abs IC50” value was 24.2 µM.
In the case of Ac-[αAllylPro]DN[B5(5)]DDAAFL[PyrS2″][3Thi][Bta]Q-NH2 (staple 1-4, 4-11) [I-1517: Ac-PL3-Asp-Asn-B5-Asp-Asp-Ala-Ala-Phe-Leu-PyrS2-3Thi-BztA-Gln-NH2], the “NanoBRET Abs IC50” value is reported as > 20 µM.

What follows are binders tested against T2, B-cat-Halo (beta-catenin HaloTag …) (assay: cell-based or functional assay).
For B2, the “NanoBRET Abs IC50” value was > 20 µM.
For Ac-[αAllylPro]D[hLeu][B5(15)]DEAAFL[S8]F[Bta]Q-NH2 (staple 1-4, 4-11) [I-1536], the “NanoBRET Abs IC50” value was 18.4 µM.
In the case of B3, the “NanoBRET Abs IC50” value is reported as 13.9 µM.
In the case of Ac-[αAllylPro]D[tBuAla][B5(23)]NNAAFN[PyrS2][3Thi][Bta]Q-NH2 (staple 1-4, 4-11) [I-1555], the “NanoBRET Abs IC50” value is reported as 29.3 µM.
B4 was tested, and the “NanoBRET Abs IC50” value was 49.1 µM.
For Ac-[αAllylPro]D[hSer][B5(15)]DEAAF[hSer][S8]F[Bta]Q-NH2 (staple 1-4, 4-11; not fully specified) [I-1548], the “NanoBRET Abs IC50” value was > 20 µM.
In the case of Ac-[αAllylPro]DF[B5(15)]DEAAFQ[S8]F[Bta]Q-NH2 (staple 1-4, 4-11) [I-1549], the “NanoBRET Abs IC50” value is reported as 11.6 µM.
In the case of B5, the “NanoBRET Abs IC50” value is reported as 11.8 µM.
